The data set deals with T1, EpCAM (endogenous on HuCCT1 cells) (UniProt P16422).
T1 sequence: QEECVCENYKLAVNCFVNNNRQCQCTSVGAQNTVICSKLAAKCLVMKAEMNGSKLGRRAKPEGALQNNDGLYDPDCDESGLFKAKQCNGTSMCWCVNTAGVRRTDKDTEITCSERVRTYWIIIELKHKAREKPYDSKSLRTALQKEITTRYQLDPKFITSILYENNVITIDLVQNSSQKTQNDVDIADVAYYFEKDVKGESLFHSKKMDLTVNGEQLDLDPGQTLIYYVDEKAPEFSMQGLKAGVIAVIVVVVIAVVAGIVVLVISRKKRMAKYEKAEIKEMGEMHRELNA
Description: flow cytometry on HuCCT1 cells. The note with it: Whole cells, 30 min on ice, HuCCT1 biotin block in PBS + 0.2% NaN3, 2.5 mM MgCl2, 0.1 mg/mL yeast total RNA (aptamer binding buffer not separately stated) …. (In general: A flow cytometer gives signals particle by particle.)

As for “CACACTTCTAAGAGGGAACAGACGTCGATCTTTGCGGAACTCCTGCG [PLD01 (B-aptamer)]”, the Kd (usually the equilibrium constant for the complex coming apart) (phosphorothioate (marked * in Table 2): C*A*C*ACTTCTAAGAGGG*AACAGACGTCGATCTTTGCGGAACT*CCTG*C*G) stood at 177 nM.
With “GACCCACGGAGGTTGCGTCCGTGGGGGAC [PLD02 (B-aptamer)]”, the Kd (phosphorothioate (marked * in Table 2): G*A*C*CCACGGAGGTTG*CGTCCGTG*GGGG*A*C) turned out to be 236 nM.

Source of the values: paper PMC11548041.
